Measured values from patent US20240368279A1 (published 2024).

B1: Hu004-68 (antibody, V domains shown)
VH: EVQLVESGGGLVQPGGSLRLSCAASGFTFSGYGMSWVRQAPGKGLEWVATITSGGTYTYYPDSVKGRFTISRDNAKNSLYLQMNSLRAEDTAVYYCARSLAGNAMDYWGQGTLVTVSS
VL: EIVLTQSPVTLSVSPGERATLSCRASQGVTSNLAWYQQKPGQAPRLLIYGASTRATGVPARFSGSGSGTEFTLTISSLQSEDFAVYYCQHRGTFGQGTKVDIK
B2: Hu004-73 antibody (full-length human IgG1, kappa) (antibody, V domains shown)
VH: B1 VH
VL: DIQMTQSPSSLSASVGDRVTITCRAGQPLNNYLNWYQQKPGKPPRLLIYAASTLQSGVPSRFSGSGSGTDFTLTISGLQSEDFASYFCQHRVTFGPGTKVDVR

Assays:
12283-H08H = 12283-H08H (human, UniProt Q08722 19-139); assay: SPR
[1] = target: human CD47 protein (antigen of the SPR affinity determination) (human, UniProt Q08722 19-139); assay: SPR

Binder | Kd (12283-H08H) [nM] | Kd [1] [nM]
B1 | 222 | –
B2 | – | 184
